US20030166873A1 (Genentech, published 2003)

B1: Flt4/IgG (extracellular domain of the Flt4 receptor, amino acids 1-775, spliced to the Fc region of a human IgG heavy chain) (Fc fusion, UniProt P35916 25-775, looked up)
chain: YSMTPPTLNITEESHVIDTGDSLSISCRGQHPLEWAWPGAQEAPATGDKDSEDTGVVRDCEGTDARPYCKVLLLHEVHANDTGSYVCYYKYIKARIEGTTAASSYVFVRDFEQPFINKPDTLLVNRKDAMWVPCLVSIPGLNVTLRSQSSVLWPDGQEVVWDDRRGMLVSTPLLHDALYLQCETTWGDQDFLSNPFLVHITGNELYDIQLLPRKSLELLVGEKLVLNCTVWAEFNSGVTFDWDYPGKQAERGKWVPERRSQQTHTELSSILTIHNVSQHDLGSYVCKANNGIQRFRESTEVIVHENPFISVEWLKGPILEATAGDELVKLPVKLAAYPPPEFQWYKDGKALSGRHSPHALVLKEVTEASTGTYTLALWNSAAGLRRNISLELVVNVPPQIHEKEASSPSIYSRHSRQALTCTAYGVPLPLSIQWHWRPWTPCKMFAQRSLRRRQQQDLMPQCRDWRAVTTQDAVNPIESLDTWTEFVEGKNKTVSKLVIQNANVSAMYKCVVSNKVGQDERLIYFYVTTIPDGFTIESKPSEELLEGQPVLLSCQADSYKYEHLRWYRLNLSTLHDAHGNPLLLDCKNVHLFATPLAASLEEVAPGARHATLSLSIPRVAPEHEGHYVCEVQDRRSHDKHCHKKYLSVQALEAPRLTQNLTDLLVNVSDSLEMQCLVAGAHAPSIVWYKDERLLEEKSGVDLADSNQKLSIQRVREEDAGRYLCSVCNAKGCVNSSASVAVEGSEDKGSME
modifications: 125I-iodinated where used as the labeled form (Example 6)
notes: range 25-775; also called Flt4 receptor-IgG fusion; ^125I-Flt4/IgG; not shown: Fc region (CH2CH3, plasmid pBSSK-Fc) of a human IgG heavy chain
B2: VH1.4 gD fusion protein (herpes glycoprotein D sequence fused to the putative mature sequence of VRP, plasmid pRK.vh1.4.5) (ligand)
chain: KYALADASLKMADPNRFRGKDLPVLDQLLEGGAAHYALLPGPREAPAAAAAFESGLDLSDAEPDAGEATAYASKDLEEQLRSVSSVDELMTVLYPEYWKMYKCQLRKGGWQHNREQANLNSRTEETIKFAAAHTNTEILKSIDNEWRKTQCMPREVCIDVGKEFGVATNTFFKPPCVSVYRCGGCCNSEGLQCMNTSTSYLSKTLFEITVPLSQGPKPVTISFANHTSCRCMSKLDVYRQVHSIIRRSLPATLPQCQAANKTCPTNYMWNNHICRCLAQEDFMFSSDAGDDSTDGFHDICGPNKELDEETCQCVCRAGLRPASCGPHKELDRNSCQCVCKNKLFPSQCGANREFDENTCQCVCKRTCPRNQPLNPGKCACECTESPQKCLLKGKKFHHQTCSCYRRPCTNRQKACEPGFSYSEEVCRCVPSYWKRPQMS
notes: also called purified VRP; gD-VRP
B3: Labeled VEGF (ligand, UniProt P15692-4 27-191, looked up)
chain: APMAEGGGQNHHEVVKFMDVYQRSYCHPIETLVDIFQEYPDEIEYIFKPSCVPLMRCGGCCNDEGLECVPTEESNITMQIMRIKPHQGQHIGEMSFLQHNKCECRPKKDRARQENPCGPCSERRKHLFVQDPQTCKCSCKNTDSRCKARQLELNERTCRCDKPRR
modifications: labeled (label not stated)
B4: VEGF165 (expression plasmid of Houck et al.) (ligand, UniProt P15692-4 27-191, looked up)
chain: B3 chain
modifications: 35S-labeled amino acids in Example 4
notes: The background calls VEGF a homodimer
B5: PlGF152 (expression plasmid of Park et al.) (ligand, UniProt P49763-3 19-170, looked up)
chain: LPAVPPQQWALSAGNGSSEVEVVPFQEVWGRSYCRALERLVDVVSEYPSEVEHMFSPSCVSLLRCTGCCGDENLHCVPVETANVTMQLLKIRSGDRPSYVELTFSQHVRCECRPLREKMKPERRRPKGRGKRRREKQRPTDCHLCGDAVPRR
modifications: 35S-labeled amino acids
notes: also called PIGF; placental growth factor
B6: human VEGF-related protein (VRP), expressed from cDNA clone VH1.4 (plasmid pRK.vh1.4.2) (ligand)
chain: GPREAPAAAAAFESGLDLSDAEPDAGEATAYASKDLEEQLRSVSSVDELMTVLYPEYWKMYKCQLRKGGWQHNREQANLNSRTEETIKFAAAHTNTEILKSIDNEWRKTQCMPREVCIDVGKEFGVATNTFFKPPCVSVYRCGGCCNSEGLQCMNTSTSYLSKTLFEITVPLSQGPKPVTISFANHTSCRCMSKLDVYRQVHSIIRRSLPATLPQCQAANKTCPTNYMWNNHICRCLAQEDFMFSSDAGDDSTDGFHDICGPNKELDEETCQCVCRAGLRPASCGPHKELDRNSCQCVCKNKLFPSQCGANREFDENTCQCVCKRTCPRNQPLNPGKCACECTESPQKCLLKGKKFHHQTCSCYRRPCTNRQKACEPGFSYSEEVCRCVPSYWKRPQMS
modifications: 35S-labeled amino acids in Example 4
notes: The cleavage site after amino acid 20 is predicted ('most likely'; cleavage after 15 or 16 is not excluded); Flt4/IgG precipitated bands of 53 kDa and 33 kDa, so the secreted protein may be further processed

Tests used:
[1] = target: putative membrane-bound VRP (putative membrane-bound ligand) on human glioma cell line G61; assay: FACS, 70 nM receptor IgG on G61 cells, compared with Rse/IgG
[2] = target: B2; assay: competition of ^125I-Flt4/IgG binding to gD-VRP on 5B6 beads by increasing unlabeled Flt4/IgG
[3] = target: B1; assay: ^125I-Flt4/IgG binding to gD-VRP captured on 5B6 glass beads, filtration and counting
[4] = target: B1; assay: binding of labeled VEGF to receptor IgG
[5] = target: B1; assay: receptor IgG / protein A precipitation of 35S-labeled conditioned medium
Flk1/IgG = target: T1, Flk1/IgG (UniProt P35968 20-764, limits assumed); assay: as above
T1 construct: Construct known only by citation

[6] = target: B1; assay: receptor IgG / protein A precipitation of 35S-labeled COS7 conditioned medium

T1 sequence (P35968 20-764 limits assumed): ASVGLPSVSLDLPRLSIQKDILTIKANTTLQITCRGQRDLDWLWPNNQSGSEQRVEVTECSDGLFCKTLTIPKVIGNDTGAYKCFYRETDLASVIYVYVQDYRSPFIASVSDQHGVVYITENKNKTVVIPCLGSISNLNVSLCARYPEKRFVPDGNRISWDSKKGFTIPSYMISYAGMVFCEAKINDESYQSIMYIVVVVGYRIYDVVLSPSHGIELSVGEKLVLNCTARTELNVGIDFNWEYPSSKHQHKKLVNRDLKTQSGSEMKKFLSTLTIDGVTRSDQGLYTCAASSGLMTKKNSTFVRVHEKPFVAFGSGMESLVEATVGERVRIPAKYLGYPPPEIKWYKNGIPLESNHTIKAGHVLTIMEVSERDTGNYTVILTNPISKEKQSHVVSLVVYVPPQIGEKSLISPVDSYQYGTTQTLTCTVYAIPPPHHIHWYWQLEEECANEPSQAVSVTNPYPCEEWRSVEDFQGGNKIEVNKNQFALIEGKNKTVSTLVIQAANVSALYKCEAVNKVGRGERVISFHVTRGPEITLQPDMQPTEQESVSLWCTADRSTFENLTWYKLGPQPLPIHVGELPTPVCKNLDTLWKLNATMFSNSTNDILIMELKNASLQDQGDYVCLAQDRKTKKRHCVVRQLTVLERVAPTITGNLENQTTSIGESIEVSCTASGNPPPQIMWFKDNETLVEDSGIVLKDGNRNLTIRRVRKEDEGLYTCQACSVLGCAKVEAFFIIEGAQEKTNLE

B1 was tested. Which “shift in peak fluorescence intensity” value [1] did it give?
Its value is ~10 fold.

What about the EC50 [2] of the same binder?
The EC50 was ~0.7 nM.

Does B2 bind [3]?
Result: binds

Does B3 bind [4]?
Result: no binding

Does B4 bind [5]?
Result: no binding (tested: 3 µg of receptor IgG)

Does B5 bind [5]?
Result: no binding (tested: 3 µg of receptor IgG)

Does B5 bind (Flk1/IgG)?
Result: no binding (tested: 3 µg of receptor IgG)

Does B6 bind [6]?
Result: binds
